In this data set the target is Tat peptide (47-57) (Human immunodeficiency virus 1). The data set is described as follows: EMSA; non-cognate RNA; higher affinity than CPP11; 10 mM potassium phosphate pH 7.5, 100 mM NaCl. As to conditions: protein: synthetic; tags: chemically synthesized peptide; stem-loop. A general note: In EMSA bound probe runs differently from free probe, usually more slowly.

B1: wild-type RRE IIB RNA (ssRNA)
RNA: GGACCUGGUAUGGGCGCAGCGCAAGCUGACGGUACAGGCCAGGUCC
B1: the binding result was “binds”.

For the origin of these results see US20240368230, “CELL-PENETRATING PEPTIDES COMPRISING MULTIPLE 5-MER ALPHA-HELIX FRAGMENTS AND USES […]” (ArtProBio Co., Ltd., published 2024).
